Source: patent US8691772B2, “HSP60, HSP60 peptides and T cell vaccines for immunomodulation” (Yeda Research and Development Co. Ltd., priority 2005, dated 2014)

Columns and labels:
[1] = test system: SOCS3; assay: SOCS3 expression in human T cells (immunoblot); type: cell-based
[2] = test system: human T cells; assay: T-cell migration assay towards SDF-1α, human T cells; type: cell-based; conditions: 1 hr pre-incubation
Description: Human cells. […] Human umbilical cord vein endothelial cells (HUVEC) were isolated from umbilical cord veins and cultured as described (Ponomaryov et al., 2000). Primary cultures were serially passaged, and passages 2 and 3 were taken for experiments.
T-cell migration assay. Migration of ^51[Cr]-labeled human and mouse T cells through FN or endothelial cells to recombinant human SDF-1α was examined in 48-well Transwell chemotaxis apparatus (5-μm pore filters, 6.5-mm diameter; Corning, N.Y.), as previously described (Zanin-Zhorov et al., 2003b). For transendothelial migration assays, 2×10^4 cells of HUVEC were layered on the filters and grown in 10% FCS M199 for 2 days before the performance of each assay. Then, HUVEC were stimulated with TNF-α (50 ng/ml) for 24 hr and washed.

[3] = test system: AKT, Pyk-2, p38, ERK, NF-κB, T-bet; assay: Western blot analysis of CD4+CD25+ / CD4+CD25- T-cell lysates; type: cell-based, human
Description: CFSE labeling of CD4^+CD25^− T cells. CD4^+CD25^− T cells were labeled with Vybrant™ CFDA SE Cell Tracer Kit (Molecular Probes; Eugene, Oreg.) according to the manufacturer's instructions. Labeled CD4^+CD25^− T cells were co-cultured with CD4^+CD25^+ T cells on anti-CD3 mAb, as described above, for 6 hr. After co-culture, CD4^+CD25^− T cells were isolated by sorting using a Becton Dickinson FACSVantage (Mountain View, Calif.).
Western blot analysis of T-cell lysates. Indicated populations of T cells (5×10^6) were preincubated with 1 ng/ml of HSP60 for 10 min (37° C. in a 7% CO2, humidified atmosphere). […] Total cell lysates, nuclear and cytoplasmic extracts were prepared as previously described (Zanin-Zhorov et al., 2003, section D of the Examples herein), analyzed for protein content. Sample buffer was then added and, after boiling, the samples, containing equal amounts of proteins, were separated on 10% SDS-PAGE gel and transferred to nitrocellulose membranes. The membranes were blocked and probed with the following mAb in the same buffer: anti-phosphorylated (p) ERK. […]

[4] = test system: ConA-induced hepatitis; assay: ConA-induced hepatitis (acute liver injury); type: in vivo, BALB/c mice
[5] = test system: CD4^+CD25^+ T cells; assay: Co-culture of treated CD4+CD25+ T cells with CD4+CD25- T cells; type: cell-based, human
[6] = test system: STAT3; assay: STAT3 phosphorylation in human T cells; type: cell-based
Procedure: Western blotting of T-cell lysates. T cells were incubated (24 hr, 37° C.) in starvation medium (RPMI medium without serum). Aliquots (5×10^6/sample) of the starved cells were preincubated (for various intervals) with different concentrations of HSP60 prior to exposure to SDF-1α (100 ng/ml, 10 min, 37° C., tissue culture conditions). These reactions were terminated by freezing the plates (−70° C., 10 min). The plates were thawed, and the cells solubilized by incubating (60 min, 4° C.) in lysis buffer [EDTA (0.5 mM), NaCL (150 mM), NaF (10 nM), Tris pH 7.5 (25 mM), Triton X-100 (1%), PMSF (200 pg/ml), and phosphatase inhibitor cocktail (1%)]. Lysates were cleared by centrifugation (30 min, 14×10^3 rpm, 4° C.), and the resulting supernatants analyzed for protein content. Sample buffer was added, the samples were boiled, and equal amounts of proteins were separated by 10% SDS-PAGE and transferred to nitrocellulose membranes. […] Phosphorylation levels of the 3-5 independent experiments were estimated by densitometry, and an average percentage of phosphorylation±SD was calculated as OD of pERK/tERK, or pPyk2/tPyk2, or pAKT/tAKT, pMLC/tMLC, or pSTAT3/tSTAT3×100%.

[7] = i.p. 330 μl, 500 ng/ml, 18 and 1 hr prior to ConA, 24 hr after ConA
[8] = CD4+CD25+ treated 1 ng/ml 2 hr, co-cultured with CD4+CD25- on anti-CD3, 24 hr

B1: HSP60: recombinant human heat shock protein 60 (StressGen Biotechnologies) (protein)
chain: AKDVKFGADARALMLQGVDLLADAVAVTMGPKGRTVIIEQSWGSPKVTKDGVTVAKSIDLKDKYKNIGAKLVQDVANNTNEEAGDGTTTATVLARSIAKEGFEKISKGANPVEIRRGVMLAVDAVIAELKKQSKPVTTPEEIAQVATISANGDKEIGNIISDAMKKVGRKGVITVKDGKTLNDELEIIEGMKFDRGYISPYFINTSKGQKCEFQDAYVLLSEKKISSIQSIVPALEIANAHRKPLVIIAEDVDGEALSTLVLNRLKVGLQVVAVKAPGFGDNRKNQLKDMAIATGGAVFGEEGLTLNLEDVQPHDLGKVGEVIVTKDDAMLLKGKGDKAQIEKRIQEIIEQLDVTTSEYEKEKLNERLAKLSDGVAVLKVGGTSDVEVNEKKDRVTDALNATRAAVEEGIVLGGGCALLRCIPALDSLTPANEDQKIGIEIIKRTLKIPAMTIAKNAGVEGSLIVEKIMQSSSEVGYDAMAGDFVNMVEKGIIDPTKVVRTALLDAAGVASLLTTAEVVVTEIPKEEKDPGMGAMGGMGGGMGGGMF
[1]; 1 ng/ml
  time at which SOCS3 activation was apparent: 30 min
  time of peak SOCS3 activation: 1 to 2 h
[1]; biphasic dose-response curve
  HSP60 concentrations of maximal SOCS3 activation: 1 ng/mL and 1000 ng/mL
[1]; human T cells, 1 hr, 0-1000 ng/ml
  expression of SOCS3: activated the expression of SOCS3 (P<0.05)
[2]
  SDF-1α-induced T-cell chemotaxis through TNF-α-activated endothelial cells: significant inhibition of T-cell chemotaxis toward SDF-1α
[2]; various concentrations
  SDF-1α-induced T-cell chemotaxis through fibronectin: significant inhibition of T-cell chemotaxis toward SDF-1α
[3]; CD4+CD25+ T cells, 1 ng/ml, 10 min
  phosphorylation of AKT, Pyk-2, and p38: induced phosphorylation of AKT, Pyk-2, and p38
[3]; co-culture with HSP60-treated CD4+CD25+ (1:9), anti-CD3, 6 hr
  ERK phosphorylation, NF-κB nuclear translocation and T-bet expression in CD4+CD25- T cells: down-regulation of ERK phosphorylation, inhibition of nuclear translocation of NF-κB and T-bet expression
[4]; 2 hr after ConA
  serum level of IL-6: to a lesser extent
  serum level of IL-10: increasing the level of IL-10
  serum level of TNF-α: reduced the levels of TNFα
[4]; 24 hr after ConA
  histopathologic examination of liver sections: only minimal liver damage
[4]; P<0.05
  GATA-3 expression in splenic T cells: significantly augmenting the expression
[4]; [7]
  serum ALT: significantly (P≦0.05) inhibited the secretion of AST and ALT
  serum AST: significantly (P≦0.05) inhibited the secretion of AST and ALT
[4]; mice treated with HSP60 only
  SOCS3 expression in splenic T cells: became elevated following HSP60 treatment
[4]; mice treated with both ConA and HSP60
  SOCS3 expression in splenic T cells: even more elevated
[4]; mouse, in vivo
  ConA-induced T-bet expression in splenic T cells: suppressed the ConA-induced expression
[5]; 24 hours
  anti-CD3-induced proliferation of CD4+CD25- T cells in co-culture: did not suppress anti-CD3-induced proliferation
[5]; 96 hours
  anti-CD3-induced proliferation of CD4+CD25- T cells in co-culture: significant inhibition of proliferation
[5]; [8]
  IFN-γ and TNF-α secretion in co-culture: significantly enhanced the down-regulation of secretion of IFN-γ and TNF-α secretion
  IL-10 and TGF-β secretion in co-culture: up-regulated the secretion of IL-10 and TGF-β in the co-cultures
[5]; HSP60 1 ng/ml, 2 hr, supernatants after 24 hr on anti-CD3
  inhibition of IFN-γ and TNF-α secretion of CD4+CD25- T cells by supernatants of treated Tregs: about 30%
[6]
  phosphorylation of STAT3: induced phosphorylation of STAT3
